Experimental data published in patent publication US11214614B2, “LTBP complex-specific inhibitors of TGFβ and uses thereof” (Scholar Rock, Inc., priority 2019, dated 2022).

Columns and labels:
[1] = target: huGARP proTGFβ1 (Homo sapiens, UniProt P01137); test: Octet (BLI) binding, IgG captured on AHC tips, antigen at 100 nM; conditions: N.B. = non-binder under conditions of this assay; for ForteBio IgG KD Hu GARP-proTGFβ1 (M) Avid: Table 9, cycle 3, IgG1-agly, 1:1 fit; for ForteBio IgG KD Hu GARP-proTGFβ1 in solution (M) Avid: Table 10, same assay conditions as Table 9
Chain of huGARP proTGFβ1 (P01137 30-390): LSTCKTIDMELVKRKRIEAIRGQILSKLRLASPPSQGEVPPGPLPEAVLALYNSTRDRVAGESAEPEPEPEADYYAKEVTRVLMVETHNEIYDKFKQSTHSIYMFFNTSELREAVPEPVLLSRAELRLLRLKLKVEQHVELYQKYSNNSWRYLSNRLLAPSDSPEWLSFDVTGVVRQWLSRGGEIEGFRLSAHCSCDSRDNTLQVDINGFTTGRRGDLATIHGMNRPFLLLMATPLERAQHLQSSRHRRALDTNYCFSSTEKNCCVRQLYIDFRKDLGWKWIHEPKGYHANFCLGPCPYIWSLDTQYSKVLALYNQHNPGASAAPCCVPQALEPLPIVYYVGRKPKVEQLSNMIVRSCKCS
Chain of huGARP proTGFβ1 (Q14392 18-627 partner limits assumed): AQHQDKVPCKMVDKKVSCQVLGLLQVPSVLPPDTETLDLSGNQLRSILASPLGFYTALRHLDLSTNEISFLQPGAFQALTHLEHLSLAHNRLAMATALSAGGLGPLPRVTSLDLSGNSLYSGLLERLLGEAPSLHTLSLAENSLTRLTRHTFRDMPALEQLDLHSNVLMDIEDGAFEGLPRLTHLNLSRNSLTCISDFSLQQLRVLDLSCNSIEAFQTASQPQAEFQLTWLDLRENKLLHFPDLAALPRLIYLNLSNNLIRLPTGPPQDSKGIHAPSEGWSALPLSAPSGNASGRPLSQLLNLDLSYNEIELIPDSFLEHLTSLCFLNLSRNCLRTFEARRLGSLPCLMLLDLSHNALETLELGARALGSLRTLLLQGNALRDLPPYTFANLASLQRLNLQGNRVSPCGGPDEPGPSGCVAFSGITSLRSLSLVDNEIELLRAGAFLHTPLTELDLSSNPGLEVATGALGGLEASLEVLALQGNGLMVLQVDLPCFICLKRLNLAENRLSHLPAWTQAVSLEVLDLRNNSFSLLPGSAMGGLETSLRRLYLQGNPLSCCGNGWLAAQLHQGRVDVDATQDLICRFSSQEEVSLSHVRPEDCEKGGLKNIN
Description: (§1) Suitable methods for in vitro binding assays to determine the parameters of binding kinetics include Bio-layer Interferometry (BLI)-based assays such as Octet, and surface plasmon resonance (SPR)-based assays, such as Biacore systems (see, for example: biophysics.bioc.cam.ac.uk/wp-content/uploads/2011/02/Biacore_assay_handbook.pdf).
(§2) The affinity of SR-AB10, SR-AB2 and SR-AB13 was measured by Octet assay. The protocol used to measure the affinity of the antibodies to the complexes provided herein is summarized below.
(§3) • 96 well black polypropylene plates • AHC Octet tips (anti-human IgG Fc capture tips) (FortdBio) • 10× kinetics buffer (FortdBio) (diluted to 1× in PBS) • reiner Bio-One 96-Well Half Area Microplates (VWR cat #82050-044) Procedure:
(§4) Notes: The volume within each well during an Octet experiment is 100 uL.
(§5) A shake speed of 1000 rpm is used for all assay steps.
(§6) Pre-Wet Tips: • Biosensors must be pre-wet in 1× kinetics buffer (lx KB) for at least 10 minutes before starting an experiment. This can be done inside the Octet or on the bench.
(§7) Loading: • Tips are baselined in 1× KB for 1 minute before loading. • AHC tips are loaded with antibody at a concentration of 1 μg/mL (˜7 nM) for 3 minutes. A limit is set so that loading will stop when any one sensor reaches a response of 1 nanometer. • Tips are baselined in buffer for 1 minute after loading. The antibody should not dissociate from the tips during this time.
(§8) Antigen Association: • TGFβ1 in complex with various presentation molecules was associated to the immobilized antibodies at a single concentration of 100 nM in 1× KB.
(§9) Antibody Dissociation: • Dissociation in 1×KB was performed for 3 minutes.
(§10) Data Analysis using ForteBio Data analysis software 8.2: • Processing: align Y axis to last 5 seconds of baseline, perform inter-step correction with align to dissociation, and perform Savitzky-Golay filtering. • Analysis: 1:1 fitting model is utilized. Fitting is local and full. […] Results:
(§11) LTBP complex-specific antibodies from the first round of affinity maturation/optimization (SR-AB14, SR-AB16, SR-AB17, SR-AB18, SR-AB19) were selected for a second round of affinity maturation/optimization (i.e., CDR-H3 mutagenesis as described herein) and particular progeny antibodies (SR-AB20, SR-AB21, SR-AB22, SR-AB23, SR-AB24, SR-AB25, SR-AB26, SR-AB27, SR-AB28, and SR-AB29) were assessed for their ability to bind various proTGFβl constructs. Binding affinities of the optimized antibodies were measured by Octet against human LTBP1-proTGFβI, human LTBP3-proTGFb1, mouse LTBP1-proTGFβ1, mouse LTBP3-proTGFb1, and GARP-proTGFβl complexes, essentially as described in Example 6. In brief, test antibodies were immobilized to the surface of anti-human Fc capture biosensors (AHC) (ForteBio®) and binding was then tested against the various TGFβ1 complexes at a single concentration of 100 nM to assess binding affinities. The antigens were allowed to associate for 3 minutes followed by a 5-minute dissociation. Kinetics buffer (ForteBio®) was used throughout the experiment, and KD was determined using a 1:1 fitting model for each antibody antigen pair.
(§12) Binding affinities of the optimized antibodies were measured by Octet against human LTBP1-proTGFβ1, human LTBP3-proTGFβ1, mouse LTBP1-proTGFβ1, mouse LTBP3-proTGFβ1, and GARP-proTGFβ1 complexes, essentially as described in Example 6. In brief, test antibodies were immobilized to the surface of anti-human Fc capture biosensors (AHC) (ForteBio®) and binding was then tested against the various TGFβ1 complexes at a single concentration of 100 nM to assess binding affinities. The antigens were allowed to associate for 3 minutes followed by a 5-minute dissociation. Kinetics buffer (ForteBio®) was used throughout the experiment, and KD was determined using a 1:1 fitting model for each antibody antigen pair. […]

[2] = target: huLTBP3 proTGFβ1 (Homo sapiens, UniProt P01137+Q9NS15); test: as above; conditions: Table 9, cycle 3, IgG1-agly; for Hu LTBP3-proTGFβ1 Kon: 1:1 fit; for Hu LTBP3-proTGFβ1 Koff: 5-minute dissociation
Chain of huLTBP3 proTGFβ1 (P01137 30-390): as the sequence (P01137 30-390) above
Chain of huLTBP3 proTGFβ1 (Q9NS15 44-1303): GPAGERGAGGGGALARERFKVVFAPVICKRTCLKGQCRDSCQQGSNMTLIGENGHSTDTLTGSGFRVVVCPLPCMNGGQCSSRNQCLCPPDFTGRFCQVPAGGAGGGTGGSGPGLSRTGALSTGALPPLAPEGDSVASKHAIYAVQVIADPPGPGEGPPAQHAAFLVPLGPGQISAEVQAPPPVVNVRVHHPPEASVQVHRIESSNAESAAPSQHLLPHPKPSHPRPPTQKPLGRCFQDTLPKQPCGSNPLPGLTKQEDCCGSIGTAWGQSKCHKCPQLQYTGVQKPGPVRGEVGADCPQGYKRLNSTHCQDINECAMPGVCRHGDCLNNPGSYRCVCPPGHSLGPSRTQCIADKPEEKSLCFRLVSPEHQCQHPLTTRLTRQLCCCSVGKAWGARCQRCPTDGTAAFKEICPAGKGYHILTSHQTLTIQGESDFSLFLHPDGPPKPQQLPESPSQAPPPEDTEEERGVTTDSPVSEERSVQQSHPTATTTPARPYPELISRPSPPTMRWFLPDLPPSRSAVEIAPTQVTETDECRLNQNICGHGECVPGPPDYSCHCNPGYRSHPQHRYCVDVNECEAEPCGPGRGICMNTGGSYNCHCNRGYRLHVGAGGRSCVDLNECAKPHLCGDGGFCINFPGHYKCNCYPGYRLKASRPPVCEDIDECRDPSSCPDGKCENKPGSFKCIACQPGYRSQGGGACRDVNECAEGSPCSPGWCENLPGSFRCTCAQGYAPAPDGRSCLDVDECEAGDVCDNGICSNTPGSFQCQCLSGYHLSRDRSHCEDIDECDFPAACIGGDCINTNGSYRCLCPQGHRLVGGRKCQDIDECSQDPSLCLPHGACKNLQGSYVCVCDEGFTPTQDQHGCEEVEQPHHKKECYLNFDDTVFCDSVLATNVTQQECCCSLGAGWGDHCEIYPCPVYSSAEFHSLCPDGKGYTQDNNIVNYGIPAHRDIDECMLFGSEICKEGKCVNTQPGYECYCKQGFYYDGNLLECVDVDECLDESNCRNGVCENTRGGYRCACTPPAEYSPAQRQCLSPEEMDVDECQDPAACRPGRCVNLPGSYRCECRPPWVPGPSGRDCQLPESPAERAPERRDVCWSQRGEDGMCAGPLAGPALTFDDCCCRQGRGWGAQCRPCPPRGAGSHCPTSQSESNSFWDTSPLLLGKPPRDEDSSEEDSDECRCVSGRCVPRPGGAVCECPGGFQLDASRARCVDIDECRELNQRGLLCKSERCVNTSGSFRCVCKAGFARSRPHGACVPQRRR
Description: as §1, §2, §3, §4, §5, §6, §7, §8, §9, §10, §11
Binding affinities of the optimized antibodies were measured by Octet against human LTBP1-proTGFβ1, human LTBP3-proTGFβ1, mouse LTBP1-proTGFβ1, mouse LTBP3-proTGFβ1, and GARP-proTGFβ1 complexes, essentially as described in Example 6. In brief, test antibodies were immobilized to the surface of anti-human Fc capture biosensors (AHC) (ForteBio®) and binding was then tested against the various TGFβ1 complexes at a single concentration of 100 nM to assess binding affinities. The antigens were allowed to associate for 3 minutes followed by a 5-minute dissociation. Kinetics buffer (ForteBio®) was used throughout the experiment, and KD was determined using a 1:1 fitting model for each antibody antigen pair.

[3] = target: huLTBP1 proTGFβ1 (Homo sapiens, UniProt P01137+Q14766); test: as above; conditions: Table 9, cycle 3, IgG1-agly
Chain of huLTBP1 proTGFβ1 (P01137 30-390): as the sequence (P01137 30-390) above
Chain of huLTBP1 proTGFβ1 (Q14766 347-1721 limits assumed): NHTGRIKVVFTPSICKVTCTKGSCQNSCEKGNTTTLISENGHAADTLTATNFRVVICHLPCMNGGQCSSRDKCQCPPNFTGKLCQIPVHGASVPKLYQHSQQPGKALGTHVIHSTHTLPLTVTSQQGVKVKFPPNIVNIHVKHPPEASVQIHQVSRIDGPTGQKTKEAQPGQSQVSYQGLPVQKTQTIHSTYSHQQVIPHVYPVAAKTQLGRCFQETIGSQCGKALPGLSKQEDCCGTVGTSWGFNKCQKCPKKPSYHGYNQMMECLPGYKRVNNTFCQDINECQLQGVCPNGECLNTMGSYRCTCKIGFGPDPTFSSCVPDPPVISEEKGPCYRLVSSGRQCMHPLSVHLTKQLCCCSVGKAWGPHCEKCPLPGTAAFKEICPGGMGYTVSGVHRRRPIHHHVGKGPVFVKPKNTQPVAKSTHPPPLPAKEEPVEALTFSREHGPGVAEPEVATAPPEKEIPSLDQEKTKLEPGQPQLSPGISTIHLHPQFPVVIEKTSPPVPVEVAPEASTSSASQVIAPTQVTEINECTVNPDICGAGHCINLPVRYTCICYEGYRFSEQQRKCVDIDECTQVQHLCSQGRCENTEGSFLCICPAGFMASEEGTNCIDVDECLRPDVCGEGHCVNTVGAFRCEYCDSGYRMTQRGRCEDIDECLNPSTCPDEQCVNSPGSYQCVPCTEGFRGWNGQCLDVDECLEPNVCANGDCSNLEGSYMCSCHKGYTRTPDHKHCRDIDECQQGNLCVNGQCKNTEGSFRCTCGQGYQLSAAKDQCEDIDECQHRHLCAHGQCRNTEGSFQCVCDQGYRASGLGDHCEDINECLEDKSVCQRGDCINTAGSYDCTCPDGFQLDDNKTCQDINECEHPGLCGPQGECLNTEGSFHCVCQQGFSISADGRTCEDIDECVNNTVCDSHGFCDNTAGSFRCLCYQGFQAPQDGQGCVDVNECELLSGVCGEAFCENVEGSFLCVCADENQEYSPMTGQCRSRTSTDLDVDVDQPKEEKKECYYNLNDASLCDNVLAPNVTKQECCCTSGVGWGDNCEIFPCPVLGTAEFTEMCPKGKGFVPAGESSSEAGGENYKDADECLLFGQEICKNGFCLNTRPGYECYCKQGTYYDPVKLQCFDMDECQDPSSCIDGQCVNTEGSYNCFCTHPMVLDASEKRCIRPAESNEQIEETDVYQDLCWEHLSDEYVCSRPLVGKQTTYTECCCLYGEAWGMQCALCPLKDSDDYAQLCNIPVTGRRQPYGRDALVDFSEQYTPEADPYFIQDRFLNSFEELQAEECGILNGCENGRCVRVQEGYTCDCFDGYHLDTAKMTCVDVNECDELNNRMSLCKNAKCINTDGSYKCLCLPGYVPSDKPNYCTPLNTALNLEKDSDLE
Description: as §1, §2, §3, §4, §5, §6, §7, §8, §9, §10, §11, §12

[4] = tested on: proTGFβ1 presented by endogenous LTBP1/3 in LN229 cells; test: Endogenous LTBP caga assay: LN229 cells transfected with human proTGFβ1 only, CAGA12 luciferase reporter cells; format: cell-based; conditions: Table 20: protocol of Example 10 with Fabs (RefAb also as hIgG4), assay format not stated
Chain of proTGFβ1 presented by endogenous LTBP1/3 in LN229 cells (P01137 30-390): as the sequence (P01137 30-390) above

B1: SR-AB64: cycle 3 light chain-optimized antibody, lineage SR-AB26; CDRs SEQ ID NO: 298-303 (antibody, V domains shown)
VH: QLQLQESGPGLVKPSETLSLTCTVSGGSIRSSSYYWGWIRQPPGKGLEWIGSISYSATTYYNPSLKSRVTISVDTSKNQFSLKLSSVTAADTAVYYCAGDPSYDSIAGMQVWGQGTTVTVSS
VL: DIQMTQSPSSLSASVGDRVTITCRASQSISYYLNWYQQKPGKAPKLLIYSASSRQSGVPSRFSGSGSGTDFTLTISSLQPEDFATYYCQQGFDFPLTFGGGTKVEIK
ForteBio IgG KD Hu GARP-proTGFβ1 (M) Avid [1]: N.B. | ForteBio IgG KD Hu GARP-proTGFβ1 in solution (M) Avid [1]: N.B. | Hu LTBP3-proTGFβ1 Kon [2]: 195000 M⁻¹ s⁻¹ | Hu LTBP3-proTGFβ1 Koff [2]: 9.18e-05 s⁻¹

B2: SR-AB40: cycle 3 light chain-optimized antibody, lineage SR-AB23; CDRs SEQ ID NO: 154-159 (antibody, V domains shown)
VH: QVQLVESGGGVVQPGRSLRLSCAASGFTFRSYVMHWVRQAPGKGLEWVAVISHEGSLKYYADSVKGRFTISRDNSKNTLYLQMNSLRAEDTAVYYCARPRIAARRGGFGYWGQGTLVTVSS
VL: NFMLTQPHSVSESPGKTVTISCTRSSGNIDNNYVQWYQQRPGSSPTTVIYEDNQRPSGVPDRFSGSIDSSSNSASLTISGLKTEDEADYYCQSYDYSNQGVVFGGGTKLTVL
ForteBio IgG KD Hu GARP-proTGFβ1 (M) Avid [1]: N.B. | ForteBio IgG KD Hu GARP-proTGFβ1 in solution (M) Avid [1]: N.B. | Hu LTBP1-proTGFβ1 Kon ([3]; 1:1 fit): 150000 M⁻¹ s⁻¹ | Hu LTBP1-proTGFβ1 Koff ([3]; 5-minute dissociation): 6e-05 s⁻¹ | Hu LTBP3-proTGFβ1 Kon [2]: 182000 M⁻¹ s⁻¹ | Hu LTBP3-proTGFβ1 Koff [2]: 6.07e-05 s⁻¹

B3: SR-AB47 Fab (antibody, V domains shown)
VH: QVQLVESGGGVVQPGRSLRLSCAASGFTFRSYVMHWVRQAPGKGLEWVAVISHEGSGKYYADSVKGRFTISRDNSKNTLYLQMNSLRAEDTAVYYCARPRIAARRGGFGSWGQGTLVTVSS
VL: NFMLTQPHSVSESPGKTVTISCTRSSGNIDYNYVQWYQQRPGSSPTTVIYEDNVRPSGVPDRFSGSIDSSSNSASLTISGLKTEDEADYYCQSYDYDNQAVVFGGGTKLTVL
IC50 [4]: 0.186 nM

B4: SR-AB23 Fab (antibody, V domains shown)
VH: QVQLVESGGGVVQPGRSLRLSCAASGFTFRSYVMHWVRQAPGKGLEWVAVISHEGSLKYYADSVKGRFTISRDNSKNTLYLQMNSLRAEDTAVYYCARPRIAARRGGFGYWGQGTLVTVSS
VL: NFMLTQPHSVSESPGKTVTISCTRSSGNIDNNYVQWYQQRPGSSPTTVIYEDNQRPSGVPDRFSGSIDSSSNSASLTISGLKTEDEADYYCQSYDSDNQGVVFGGGTKLTVL
IC50 [4]: 8.53 nM

B5: SR-AB54 Fab (antibody, V domains shown)
VH: QVQLVESGGGVVQPGRSLRLSCAASGFTFRSYVMHWVRQAPGKGLEWVAVISHEGSGKYYADSVKGRFTISRDNSKNTLYLQMNSLRAEDTAVYYCALPRIAARRGGFGSWGQGTLVTVSS
VL: NFMLTQPHSVSESPGKTVTISCTRSSGNIDYNYVQWYQQRPGSSPTTVIYEDNVRPSGVPDRFSGSIDSSSNSASLTISGLKTEDEADYYCQSYDSDNQRVVFGGGTKLTVL
IC50 [4]: 5.87 nM

B6: SR-AB59 Fab (antibody, V domains shown)
VH: QVQLVESGGGVVQPGRSLRLSCAASGFTFRSYVMHWVRQAPGKGLEWVAVISHEGSGKYYADSVKGRFTISRDNSKNTLYLQMNSLRAEDTAVYYCALPRIAARRGGFGTWGQGTLVTVSS
VL: NFMLTQPHSVSESPGKTVTISCTRSSGNIDYNYVQWYQQRPGSSPTTVIYEDNVRPSGVPDRFSGSIDSSSNSASLTISGLKTEDEADYYCQSYDYDNQAVVFGGGTKLTVL
IC50 [4]: 0.195 nM

B7: SR-AB52 Fab (antibody, V domains shown)
VH: QVQLVESGGGVVQPGRSLRLSCAASGFTFRSYVMHWVRQAPGKGLEWVAVISHEGSGKYYADSVKGRFTISRDNSKNTLYLQMNSLRAEDTAVYYCARPRIAARRGGFGTWGQGTLVTVSS
VL: NFMLTQPHSVSESPGKTVTISCTRSSGNIDYNYVQWYQQRPGSSPTTVIYEDNVRPSGVPDRFSGSIDSSSNSASLTISGLKTEDEADYYCQSYDYDTQGVVFGGGTKLTVL
IC50 [4]: 0.459 nM

B8: SR-AB50 Fab (antibody, V domains shown)
VH: QVQLVESGGGVVQPGRSLRLSCAASGFTFRSYVMHWVRQAPGKGLEWVAVISHEGSGKYYADSVKGRFTISRDNSKNTLYLQMNSLRAEDTAVYYCARPRIAARRGGFGTWGQGTLVTVSS
VL: NFMLTQPHSVSESPGKTVTISCTRSSGNIDYNYVQWYQQRPGSSPTTVIYEDNVRPSGVPDRFSGSIDSSSNSASLTISGLKTEDEADYYCQSYDSDNQRVVFGGGTKLTVL
IC50 [4]: 11 nM

B9: SR-AB58 Fab (antibody, V domains shown)
VH: QVQLVESGGGVVQPGRSLRLSCAASGFTFRSYVMHWVRQAPGKGLEWVAVISHEGSGKYYADSVKGRFTISRDNSKNTLYLQMNSLRAEDTAVYYCALPRIAARRGGFGTWGQGTLVTVSS
VL: NFMLTQPHSVSESPGKTVTISCTRSSGNIDYNYVQWYQQRPGSSPTTVIYEDNVRPSGVPDRFSGSIDSSSNSASLTISGLKTEDEADYYCQSYDSDNQRVVFGGGTKLTVL
IC50 [4]: 4.86 nM

B10: SR-Ab56 Fab (antibody, V domains shown)
VH: QVQLVESGGGVVQPGRSLRLSCAASGFTFRSYVMHWVRQAPGKGLEWVAVISHEGSGKYYADSVKGRFTISRDNSKNTLYLQMNSLRAEDTAVYYCALPRIAARRGGFGSWGQGTLVTVSS
VL: NFMLTQPHSVSESPGKTVTISCTRSSGNIDYNYVQWYQQRPGSSPTTVIYEDNVRPSGVPDRFSGSIDSSSNSASLTISGLKTEDEADYYCQSYDYDTQGVVFGGGTKLTVL
IC50 [4]: 0.439 nM

B11: SR-AB53 Fab (antibody, V domains shown)
VH: QVQLVESGGGVVQPGRSLRLSCAASGFTFRSYVMHWVRQAPGKGLEWVAVISHEGSGKYYADSVKGRFTISRDNSKNTLYLQMNSLRAEDTAVYYCARPRIAARRGGFGTWGQGTLVTVSS
VL: NFMLTQPHSVSESPGKTVTISCTRSSGNIDYNYVQWYQQRPGSSPTTVIYEDNVRPSGVPDRFSGSIDSSSNSASLTISGLKTEDEADYYCQGYDWDTQGVVFGGGTKLTVL
IC50 [4]: 1.18 nM
